Test results from IntAct's records for PubMed 16488394.

B1: Actin nucleation-promoting factor WAS (Homo sapiens), P42768 (parent)
chain: MSGGPMGGRPGGRGAPAVQQNIPSTLLQDHENQRLFEMLGRKCLTLATAVVQLYLALPPGAEHWTKEHCGAVCFVKDNPQKSYFIRLYGLQAGRLLWEQELYSQLVYSTPTPFFHTFAGDDCQAGLNFADEDEAQAFRALVQEKIQKRNQRQSGDRRQLPPPPTPANEERRGGLPPLPLHPGGDQGGPPVGPLSLGLATVDIQNPDITSSRYRGLPAPGPSPADKKRSGKKKISKADIGAPSGFKHVSHVGWDPQNGFDVNNLDPDLRSLFSRAGISEAQLTDAETSKLIYDFIEDQGGLEAVRQEMRRQEPLPPPPPPSRGGNQLPRPPIVGGNKGRSGPLPPVPLGIAPPPPTPRGPPPPGRGGPPPPPPPATGRSGPLPPPPPGAGGPPMPPPPPPPPPPPSSGNGPAPPPLPPALVPAGGLAPGGGRGALLDQIRQGIQLNKTPGAPESSALQPPPQSSEGLVGALMHVMQKRSRAIHSSDEGEDQAGDEDEDDEWDD

Variants of: B1
Conditions: with wipf1_human WIPF1, O43516
Chain of wipf1_human WIPF1, O43516 (O43516 whole entry): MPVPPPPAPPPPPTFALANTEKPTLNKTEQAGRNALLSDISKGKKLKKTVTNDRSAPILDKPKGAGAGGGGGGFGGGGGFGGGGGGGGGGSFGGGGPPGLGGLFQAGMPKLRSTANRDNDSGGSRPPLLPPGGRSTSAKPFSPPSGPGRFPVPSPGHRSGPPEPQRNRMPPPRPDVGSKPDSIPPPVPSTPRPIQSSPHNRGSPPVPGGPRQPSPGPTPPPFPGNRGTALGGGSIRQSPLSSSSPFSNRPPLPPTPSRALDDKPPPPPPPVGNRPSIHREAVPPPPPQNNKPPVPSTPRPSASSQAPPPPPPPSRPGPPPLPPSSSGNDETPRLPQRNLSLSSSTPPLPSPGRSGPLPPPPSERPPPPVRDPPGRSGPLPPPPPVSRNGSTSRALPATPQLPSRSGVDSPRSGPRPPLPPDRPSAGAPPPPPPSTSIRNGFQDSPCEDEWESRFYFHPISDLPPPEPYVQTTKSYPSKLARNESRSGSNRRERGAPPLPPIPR
In the case of MSGGPMGGRPGGRGAPAVQQNIPSTLLQDHENQRLFEMLGRKCLTLATAVVQLYLALPPGAEHWTKEHCGAVCFVKDNPQKSYFIRLYGLQAGRLLWEQELYSQLVYSTPTPFFHTFAGDDCQAGLNFADEDETQAFRALVQEKIQKRNQRQSGDRRQLPPPPTPANEERRGGLPPLPLHPGGDQGGPPVGPLSLGLATVDIQNPDITSSRYRGLPAPGPSPADKKRSGKKKISKADIGAPSGFKHVSHVGWDPQNGFDVNNLDPDLRSLFSRAGISEAQLTDAETSKLIYDFIEDQGGLEAVRQEMRRQEPLPPPPPPSRGGNQLPRPPIVGGNKGRSGPLPPVPLGIAPPPPTPRGPPPPGRGGPPPPPPPATGRSGPLPPPPPGAGGPPMPPPPPPPPPPPSSGNGPAPPPLPPALVPAGGLAPGGGRGALLDQIRQGIQLNKTPGAPESSALQPPPQSSEGLVGALMHVMQKRSRAIHSSDEGEDQAGDEDEDDEWDD [A134T], the “effect of a mutation on the interaction” value is reported as “decreasing interaction”.
